Test results as given in US8383581B2, “Short-chain peptides as parathyroid hormone (PTH) receptor agonist” (Cadila Healthcare Limited, priority 2009, dated 2013).
Where no end group is shown, it is not given here. [ ]: non-standard residue; d: D form. The star is where a group is joined. Bip(2'-Et-4'-OMe) = CCc1cc(OC)ccc1-c1ccc(C[C@H](N)C(=O)O)cc1; Arg(NO2) = N=C(NCCC[C@H](N)C(=O)O)N[N+](=O)[O-]; αMePhe(2,6-F2) = C[C@](N)(Cc1c(F)cccc1F)C(=O)O; αMePhe(2-F) = C[C@](N)(Cc1ccccc1F)C(=O)O; hhPhe = N[C@@H](CCCc1ccccc1)C(=O)O; hArg = N=C(N)NCCCC[C@H](N)C(=O)O; hCit = NC(=O)NCCCC[C@H](N)C(=O)O; αMeF = C[C@](N)(Cc1ccccc1)C(=O)O; Cit = NC(=O)NCCC[C@H](N)C(=O)O; NMeM = CN[C@@H](CCSC)C(=O)O; Decanoyl = CCCCCCCCCC(=O)*; Ac6c = NC1(C(=O)O)CCCCC1; Nle = CCCC[C@H](N)C(=O)O; Orn = NCCC[C@H](N)C(=O)O; Ac5c = NC1(C(=O)O)CCCC1; Ac3c = NC1(C(=O)O)CC1; Aib = CC(C)(N)C(=O)O

T1: rat PTH-1R (rat PTHR endogenously expressed on UMR-106 rat osteosarcoma cells) (rat, UniProt P25961 27-591)
T1 sequence (looked up): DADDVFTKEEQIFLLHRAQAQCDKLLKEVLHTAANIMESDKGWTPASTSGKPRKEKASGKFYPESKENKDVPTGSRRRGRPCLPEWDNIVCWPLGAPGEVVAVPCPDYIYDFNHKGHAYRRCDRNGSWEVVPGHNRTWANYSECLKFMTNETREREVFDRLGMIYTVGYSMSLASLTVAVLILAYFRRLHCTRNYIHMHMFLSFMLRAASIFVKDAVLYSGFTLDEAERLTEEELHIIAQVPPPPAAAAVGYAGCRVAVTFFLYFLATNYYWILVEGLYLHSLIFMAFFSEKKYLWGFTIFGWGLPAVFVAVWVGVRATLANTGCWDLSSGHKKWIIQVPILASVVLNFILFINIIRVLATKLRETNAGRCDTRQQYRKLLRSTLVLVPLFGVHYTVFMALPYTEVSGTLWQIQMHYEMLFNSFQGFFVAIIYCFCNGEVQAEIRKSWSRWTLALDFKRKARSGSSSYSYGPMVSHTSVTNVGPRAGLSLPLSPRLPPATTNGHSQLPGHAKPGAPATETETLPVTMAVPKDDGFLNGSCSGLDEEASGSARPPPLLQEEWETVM


Biological target: T1, rat PTH-1R (rat PTHR endogenously …)
Assay: cell-based or functional assay

| Binder | cAMP released with respect to control, 1 nM peptide, UMR-106 cells | cAMP released with respect to control, 10 nM peptide, UMR-106 cells | cAMP released with respect to control, 100 nM peptide, UMR-106 cells |
| --- | --- | --- | --- |
| [Aib]V[Ac6c]EIQL[Nle]HQ[hArg][Aib]K[αMeF] [Seq. ID. 23] | 12 percent of control | 41 percent of control | 69 percent of control |
| [Ac5c]V[Aib]EIQ[αMePhe(2,6-F2)][Nle]HQ[αMePhe(2,6-F2)]A[Cit][αMePhe(2-F)] [Seq. ID. 479] | 48 percent of control | 99 percent of control | 112 percent of control |
| [Aib]V[Aib]EIQ[αMePhe(2-F)][Nle]HQ[αMePhe(2,6-F2)][Aib][αMePhe(2,6-F2)][αMePhe(2,6-F2)] [Seq. ID. 514] | 19 percent of control | 64 percent of control | 80 percent of control |
| [Aib]V[Aib]EIQ[αMePhe(2,6-F2)][Nle]HQ[αMePhe(2,6-F2)]A[Aib][αMePhe(2,6-F2)] [Seq. ID. 501] | 28 percent of control | 71 percent of control | 87 percent of control |
| [Aib]V[Aib]EIQ[αMePhe(2,6-F2)][Nle]HQ[αMePhe(2,6-F2)][Aib][Cit][αMePhe(2,6-F2)] [Seq. ID. 486] | 34 percent of control | 82 percent of control | 104 percent of control |
| [Ac5c]V[Aib]EIQLMHQ[hArg][Aib]K[αMeF] [Seq. ID. 20] | 79 percent of control | 111 percent of control | 121 percent of control |
| SVSEIQLMHNLGKHLNSMERVEWLRKKLQDVHNF [PTH (1-34)] | 41 percent of control | 97 percent of control | 100 percent of control |
| [Ac5c]V[Aib]EIQ[αMePhe(2-F)][Nle]HQ[Aib][Aib][Cit][αMePhe(2-F)] [Seq. ID. 540] | 16 percent of control | 57 percent of control | 75 percent of control |
| [Aib]V[Aib]EIQ[αMePhe(2-F)][Nle]HQ[αMePhe(2,6-F2)]A[Arg(NO2)][αMePhe(2-F)] [Seq. ID. 521] | 21 percent of control | 51 percent of control | 69 percent of control |
| [Aib]V[Aib]EIQ[αMePhe(2,6-F2)][Nle]HQ[hCit][Aib][Arg(NO2)][αMePhe(2,6-F2)] [Seq. ID. 470] | 36 percent of control | 88 percent of control | 116 percent of control |

The next lines start with the values.

| cAMP released with respect to control, 1 nM peptide, UMR-106 cells | cAMP released with respect to control, 10 nM peptide, UMR-106 cells | cAMP released with respect to control, 100 nM peptide, UMR-106 cells | Binder |
| --- | --- | --- | --- |
| 36 percent of control | 98 percent of control | 110 percent of control | [Ac5c]V[Aib]EIQL[Nle]HQ[hArg]A[Cit][Bip(2'-Et-4'-OMe)][hhPhe] [Seq. ID. 733] |
| 38 percent of control | 98 percent of control | 116 percent of control | [Aib]V[Aib]EIQ[αMePhe(2-F)][Nle]HQ[Aib]A[Aib][αMePhe(2-F)] [Seq. ID. 553] |
| 34 percent of control | 88 percent of control | 116 percent of control | [Ac5c]V[Aib]EIQL[Nle]HQ[Orn]A[Aib][Bip(2'-Et-4'-OMe)][hhPhe] [Seq. ID. 751] |
| 39 percent of control | 101 percent of control | 120 percent of control | [Ac3c]V[Ac3c]EIQLMHQ[hArg]AK[Bip(2'-Et-4'-OMe)][hhPhe] [Seq. ID. 609] |
| 16 percent of control | 57 percent of control | 75 percent of control | [Ac5c]V[Aib]EIQL[Nle]HQ[hCit]A[Cit][Bip(2'-Et-4'-OMe)][hhPhe] [Seq. ID. 781] |
| 56 percent of control | 101 percent of control | 126 percent of control | [Aib]V[Aib]EIQL[Nle]HQ[hArg]AK[Bip(2'-Et-4'-OMe)] [Seq. ID. 647] |
| 38 percent of control | 79 percent of control | 119 percent of control | [Aib]V[Aib]EIQ[αMePhe(2,6-F2)][Nle]HQ[Aib][Aib][Arg(NO2)][αMePhe(2,6-F2)] [Seq. ID. 598] |
| 48 percent of control | 102 percent of control | 112 percent of control | [Ac3c]V[Aib]EIQL[NMeM]HQ[hArg]AK(Decanoyl)[Bip(2'-Et-4'-OMe)] [Seq. ID. 678] |
| 19 percent of control | 64 percent of control | 80 percent of control | [Ac3c]V[Aib]EIQ[αMePhe(2,6-F2)][Nle]HQ[hArg]A[Arg(NO2)][Bip(2'-Et-4'-OMe)][hhPhe] [Seq. ID. 694] |
| 36 percent of control | 98 percent of control | 110 percent of control | [Ac5c]V[Ac3c]EIQL[Nle]HQ[hArg]AK(Decanoyl)[Bip(2'-Et-4'-OMe)][hhPhe] [Seq. ID. 637] |
| 15 percent of control | 54 percent of control | 69 percent of control | [Ac3c]V[Aib]EIQ[αMePhe(2-F)][Nle]HQ[hArg]A[Arg(NO2)][αMePhe(2,6-F2)][hhPhe] [Seq. ID. 712] |
